± gives the standard deviation.

Among the data in the supplement of paper PMC10567573 are protein stability index values, retold here.

This series can be described thus: protein stability index of a GFP-peptide fusion (GPS, HEK-293T) (PSI 1-6); higher = more stable.
Where [1] appears, read: treatment: DMSO, c terminus: a fixed tail appended.
Setting [2] is: treatment: MLN4924 1 uM, 8 h, c terminus: a fixed tail appended.
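Also: 24-mer peptide tiles fused after GFP, lentivirally expressed, FACS-sorted into six equal bins by GFP/DsRed ratio, decoded by Illumina sequencing, PSI is the read-weighted mean bin number.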

Regarding LPTTKMAQTNPTPGSLGPWKITIY [CRYBA1], the protein stability index is, setting by setting: under setting [1], 2.71 ± 0.48; under setting [2], 2.19 ± 0.49.
With LPWSSVLRVWDMFFCEGVKIIFRV [TBC1D10A], the protein stability index is, setting by setting: under setting [1], 2.96 ± 0.72; under setting [2], 3.34 ± 0.86.
For LQGDLKTLMGKLKLKNTVTIQQEK [SASS6], the protein stability index under setting [2] came out at 2.81 ± 0.25.
For LQMKLEKLREKERKKEAKRKISSL [FAM50A], the protein stability index worked out at 3.71 ± 0.45 under setting [1] and 3.98 ± 0.53 under setting [2].
In the same order, the values of LQNFSSSWSDGMAFCALVHSFFPD [SMTNL2] are 2.6 ± 0.39 and 2.42 ± 0.44.
With LREERGHPLHPRHRKAVHLRTRGR [C6orf223], the protein stability index amounted to 4.08 ± 0.23 under setting [1] and 4.06 ± 0.36 under setting [2].
In the same order, the values of LRFFKEKDGKAFHPTYEEKLKLVA [ACBD3] are 2.53 ± 0.26 and 2.5 ± 0.55.
Take LRLENNHCHIEESEHVLKKAHKYS [VPS39]: the protein stability index is, setting by setting: under setting [1], 2.87 ± 0.37; under setting [2], 3.31 ± 0.45.
As to LRQFFKQLPSPPFLPAAGTADCR [CEBPD], the protein stability index is, setting by setting: (treatment: DMSO, c terminus: native) 1.89 ± 0.67; (treatment: MLN4924 1 uM, 8 h, c terminus: native) 2.16 ± 0.28.
For LSLGLATVDIQNPDITSSRYRGLP [WAS], the protein stability index is, setting by setting: under setting [1], 2.96 ± 0.25; under setting [2], 3.12 ± 0.22.
The sequence LSPDIMKDAYVQKLVKVCNGHDCW [TENT5D] displayed a protein stability index under setting [1] of 2.41 ± 0.72 and a protein stability index under setting [2] of 2.35 ± 0.17.
As for LSRLSLMAMPNGFHEDGPQGPGGD [PSD2], the protein stability index by setting is: under setting [1], 4.89 ± 0.15; under setting [2], 4.62 ± 0.13.
Turning to LSRYQNELAGVDTELLAERFYYQA [SMG5], the protein stability index by setting is: under setting [1], 2.7 ± 0.51; under setting [2], 2.81 ± 0.43.
As for LSSRWKNWWIRGILTLTMISLFFL [CDS1], the protein stability index reads like this: under setting [1], 2.54 ± 0.37; under setting [2], 2.17 ± 0.36.
In the same order, the values of LTAQGQQFHCHKAVLASCSQYFRS [KLHL14] are 2.27 ± 0.25 and 2.37 ± 0.33.
Take LTHLVKLDLSKNKLQQLPADFGRL [LRRC59]: the protein stability index under setting [1] was 2.65 ± 0.19 and the protein stability index under setting [2] turned out to be 2.7 ± 0.17.
The corresponding values for LTKLREMGREKCHQYWPAERSARY [PTPRD] are 2.33 ± 0.21 and 2.9 ± 0.45.
Turning to LTLSQYILLDPILMFFIMAAMLSM [POMT2], the protein stability index was 3.29 ± 0.56 under setting [1] and 2.95 ± 0.69 under setting [2].
Turning to LTSELDPEKEQEIETIKIIETEDQ [MIA2], the protein stability index runs as follows: under setting [1], 4.84 ± 0.051; under setting [2], 5.46 ± 0.33.
In the same order, the values of LVDVACKHLTDTSHGVRNKCLQLL [INTS4] are 2.18 ± 0.49 and 2.46 ± 0.17.
Take LVKHWYQNCKKKLGKLPPQYALEL [OAS1]: the protein stability index reads like this: under setting [1], 2.43 ± 0.83; under setting [2], 2.51 ± 0.63.
Take LVKKVEEDEAGGRFVAFSGEGQSL [UFD1]: the protein stability index turned out to be 4.71 ± 0.14 under setting [1] and 4.81 ± 0.18 under setting [2].
For the sequence LVLEQFLTILPTEIETWVREHCPE [ZNF449], the protein stability index worked out at 2.2 ± 0.47 under setting [1] and 2.35 ± 0.47 under setting [2].
On to LVTLNDMKAKQEALVKEREKQLAK [FAM50A], for which the protein stability index is, setting by setting: under setting [1], 4.23 ± 0.24; under setting [2], 4.25 ± 0.45.
The corresponding values for LWEAEDRQNVPRKVPNHYIAIPEW [CPXM2] are 3 ± 0.31 and 3.02 ± 0.32.
The corresponding values for LWRSRVVPDREEGGSGGGGGGDED [SMAD6] are 5.36 ± 0.29 and 5.45 ± 0.14.
Take LYKEELEQTYHAKLENARLSSEMN [LMNB1]: the protein stability index runs as follows: under setting [1], 3.21 ± 0.64; under setting [2], 3.62 ± 0.25.
With MAETSLLEAGASAASTAAALENLQ [TRIM39], the protein stability index is, setting by setting: under setting [1], 4.59 ± 0.32; under setting [2], 4.4 ± 0.29.
With MAGRLMIRKLVAEKLNIPWNHIRL [AASDHPPT], the protein stability index stood at 2.4 ± 0.94 under setting [1] and 2.12 ± 0.34 under setting [2].
As for MAPLQPSTSRAHKLPSRRQPGLLH [FAM189A2], the protein stability index reads like this: under setting [1], 3.62 ± 0.18; under setting [2], 3.72 ± 0.28.
With MAQSRDGGNPFAEPSELDNPFQDP [SCAMP3], the protein stability index was determined as 5.19 ± 0.17 under setting [1] and 5.19 ± 0.23 under setting [2].
As for MASCPDSDNSWVLAGSESLPVETL [PBXIP1], the protein stability index runs as follows: under setting [1], 4.31 ± 0.27; under setting [2], 4.41 ± 0.22.
Turning to MASSPIQPRKGGADWLGLKDEDLD [FBF1], the protein stability index is 5.12 ± 0.37 under setting [1] and 5.07 ± 0.26 under setting [2].
Turning to MAVTGWLESLRTAQKTALLQDGRR [DPCD], the protein stability index under setting [1] worked out at 2.51 ± 0.14 and the protein stability index under setting [2] was 2.68 ± 0.17.
In the same order, the values of MCEQCDVFYCDPCRLRCHPPRGPL [TRIM9] are 2.8 ± 0.32 and 2.72 ± 0.35.
The corresponding values for MDIGQPKDFLTGMCLFLQSLRQKQ [GMPPB] are 2.46 ± 0.11 and 2.72 ± 0.39.
MDRSLVQDAPLSDCTETIEGLELT [ADD1] returned a protein stability index under setting [1] of 5.27 ± 0.28 and a protein stability index under setting [2] of 5.32 ± 0.19.
With MDTAMEVVKFVNFLLVNGFQTAID [TRAF3IP2], the protein stability index by setting is: under setting [1], 2.73 ± 1.1; under setting [2], 2.79 ± 0.086.
MEDSQETSPSSNNSSEELSSALHL [NECAB1] gave a protein stability index under setting [1] of 5.57 ± 0.18 and a protein stability index under setting [2] of 5.55 ± 0.18.
With MEKGPVRAPAEKPRGARCSNGFPE [GCH1], the protein stability index reads like this: under setting [1], 4.46 ± 0.29; under setting [2], 4.58 ± 0.25.
In the case of MEPGDIIGVAGNHWDGYSKGVNRK [FUT8], the protein stability index reads like this: under setting [1], 4.4 ± 0.22; under setting [2], 4.6 ± 0.35.
Consider METSPSEEDSFYRSSYPQQQGLGA [TBX5], for which the protein stability index is 4.37 ± 0.073 under setting [1] and 4.47 ± 0.17 under setting [2].
MGSAADVRFSLGTTTHAPPGVHRR [PPFIA4]: the protein stability index came out at 4.26 ± 0.3 under setting [1] and 4.51 ± 0.39 under setting [2].
Regarding MKNKNNVTEFILLGLTQNPEGQKV [OR4A15], the protein stability index under setting [1] amounted to 2.44 ± 0.31 and the protein stability index under setting [2] is 2.99 ± 0.11.
In the case of MLKFLAKGEVPKGSCEDEPMDSTM [ATE1], the protein stability index by setting is: under setting [1], 4.22 ± 0.3; under setting [2], 4.36 ± 0.092.
Take MLWVQRKRRRKETSECPSDKDKSP [C10orf62]: the protein stability index reads like this: under setting [1], 3.2 ± 0.42; under setting [2], 3.66 ± 0.43.
With MNAVGSPEGQELQKLGSGAWDNPA [PKD2L1], the protein stability index was determined as 4.59 ± 0.2 under setting [1] and 4.35 ± 0.27 under setting [2].
With MPEFSSDSTMRILSNLVQHILKKY [RTP4], the protein stability index stood at 2.2 ± 0.39 under setting [1] and 2.52 ± 0.31 under setting [2].
Take MPLKWKTSSPAIWKFPVPVLKTSR [KLHL13]: the protein stability index turned out to be 2.46 ± 0.052 under setting [1] and 2.47 ± 0.44 under setting [2].
With MPRQISRQSSVTESTLYPNPYHQP [TPRG1], the protein stability index reads like this: under setting [1], 3.73 ± 0.34; under setting [2], 3.7 ± 0.25.
MQERVQRLEAARLSLEEELSRVKA [LRRC45] returned a protein stability index under setting [1] of 4.25 ± 0.5 and a protein stability index under setting [2] of 4.48 ± 0.27.
For MRHVEKMCKADLSRNFIERNHMEN [TRIM29], the protein stability index was found to be 3.05 ± 0.16 under setting [1] and 3.1 ± 0.12 under setting [2].
The corresponding values for MRSAAVLALLLCAGQVTALPVNSP [CHGA] are 3.21 ± 0.45 and 2.83 ± 0.57.
Turning to MSASLNYKSFSKEQQTMDNLEKQL [TRIM55], the protein stability index runs as follows: under setting [1], 4.71 ± 0.23; under setting [2], 4.47 ± 0.14.
Consider MSLKCLAARAVRANDINYQDQIPR [FEM1B], for which the protein stability index by setting is: under setting [1], 3.49 ± 0.34; under setting [2], 3.52 ± 0.17.
Consider MSQGPPTGESSEPEAKVLHTKRLY [SMG5], for which the protein stability index runs as follows: under setting [1], 4.81 ± 0.24; under setting [2], 4.94 ± 0.15.
With MTKTVQYQNELHKFLIWDTAGQER [RAB22A], the protein stability index by setting is: under setting [1], 3.03 ± 0.23; under setting [2], 3.14 ± 0.17.
MVTCKSEFYHDEFKRWIYLNDQNL [GAN]: the protein stability index was 2.44 ± 0.43 under setting [1] and 2.25 ± 0.48 under setting [2].
On to NAAKTCPTMPALFSDHTFRHYAYL [INTS4], for which the protein stability index is 2.03 ± 0.42 under setting [1] and 2.13 ± 0.29 under setting [2].
NALKDARAKLDELEGALHQAKEEL [KRT71]: the protein stability index under setting [1] was determined as 5.06 ± 0.38 and the protein stability index under setting [2] was 4.97 ± 0.095.
For the sequence NATLTQYQLLATHVPTVWAIDQYR [RHOBTB2], the protein stability index by setting is: under setting [1], 2.61 ± 0.58; under setting [2], 2.48 ± 0.31.
With NCLTGEGEDTRLSASEMKQLIDNI [CIB1], the protein stability index was 4.67 ± 0.18 under setting [1] and 4.74 ± 0.32 under setting [2].
In the case of NCVLSSSPNPFPEISRGEYLYTYD [ZNF8], the protein stability index under setting [1] is 2.76 ± 0.42 and the protein stability index under setting [2] was determined as 3.01 ± 0.3.
For the sequence NDVKHHRWFRSVDWEAVPQRKLKP [PRKX], the protein stability index by setting is: under setting [1], 3.65 ± 0.19; under setting [2], 3.6 ± 0.24.
NETKSQAFVSNSPKLFCPKNRSFD [PLD5] returned a protein stability index under setting [1] of 4.21 ± 0.23 and a protein stability index under setting [2] of 3.86 ± 0.54.
Turning to NFEEMRALLDSLPPPVESELALFQ [KLHL14], the protein stability index turned out to be 3.46 ± 0.45 under setting [1] and 3.91 ± 0.28 under setting [2].
Turning to NFGLRLVVQRCSGQKWMIRNWIKH [GALNT9], the protein stability index under setting [1] stood at 2.67 ± 0.32 and the protein stability index under setting [2] is 2.06 ± 0.59.
In the same order, the values of NFRDLVRDLEKQKEEVRAALEQRE [TRIM29] are 4.54 ± 0.11 and 4.43 ± 0.21.
The corresponding values for NGAKELWFFLQSELKKLKNLEGNE [FUT8] are 2.45 ± 0.47 and 2.48 ± 0.33.
Regarding NGEYTLMPSPTDVVLPGAVSLRYS [ADAMTS4], the protein stability index was 3.23 ± 0.34 under setting [1] and 3.28 ± 0.41 under setting [2].
Regarding NGGVVQVGELLPCKICGRTFFPVA [ZC2HC1A], the protein stability index stood at 2.42 ± 0.091 under setting [1] and 2.48 ± 0.47 under setting [2].
In the same order, the values of NGNGKNGGLEHVPSSSSIHNGDME [BNIP3L] are 5.28 ± 0.2 and 5.28 ± 0.24.
